Results as given in US20040110688.

molecular target: factor VIIIa (UniProt P00451)
Sequence (P00451 other isoform, or with tags, fused parts or gaps): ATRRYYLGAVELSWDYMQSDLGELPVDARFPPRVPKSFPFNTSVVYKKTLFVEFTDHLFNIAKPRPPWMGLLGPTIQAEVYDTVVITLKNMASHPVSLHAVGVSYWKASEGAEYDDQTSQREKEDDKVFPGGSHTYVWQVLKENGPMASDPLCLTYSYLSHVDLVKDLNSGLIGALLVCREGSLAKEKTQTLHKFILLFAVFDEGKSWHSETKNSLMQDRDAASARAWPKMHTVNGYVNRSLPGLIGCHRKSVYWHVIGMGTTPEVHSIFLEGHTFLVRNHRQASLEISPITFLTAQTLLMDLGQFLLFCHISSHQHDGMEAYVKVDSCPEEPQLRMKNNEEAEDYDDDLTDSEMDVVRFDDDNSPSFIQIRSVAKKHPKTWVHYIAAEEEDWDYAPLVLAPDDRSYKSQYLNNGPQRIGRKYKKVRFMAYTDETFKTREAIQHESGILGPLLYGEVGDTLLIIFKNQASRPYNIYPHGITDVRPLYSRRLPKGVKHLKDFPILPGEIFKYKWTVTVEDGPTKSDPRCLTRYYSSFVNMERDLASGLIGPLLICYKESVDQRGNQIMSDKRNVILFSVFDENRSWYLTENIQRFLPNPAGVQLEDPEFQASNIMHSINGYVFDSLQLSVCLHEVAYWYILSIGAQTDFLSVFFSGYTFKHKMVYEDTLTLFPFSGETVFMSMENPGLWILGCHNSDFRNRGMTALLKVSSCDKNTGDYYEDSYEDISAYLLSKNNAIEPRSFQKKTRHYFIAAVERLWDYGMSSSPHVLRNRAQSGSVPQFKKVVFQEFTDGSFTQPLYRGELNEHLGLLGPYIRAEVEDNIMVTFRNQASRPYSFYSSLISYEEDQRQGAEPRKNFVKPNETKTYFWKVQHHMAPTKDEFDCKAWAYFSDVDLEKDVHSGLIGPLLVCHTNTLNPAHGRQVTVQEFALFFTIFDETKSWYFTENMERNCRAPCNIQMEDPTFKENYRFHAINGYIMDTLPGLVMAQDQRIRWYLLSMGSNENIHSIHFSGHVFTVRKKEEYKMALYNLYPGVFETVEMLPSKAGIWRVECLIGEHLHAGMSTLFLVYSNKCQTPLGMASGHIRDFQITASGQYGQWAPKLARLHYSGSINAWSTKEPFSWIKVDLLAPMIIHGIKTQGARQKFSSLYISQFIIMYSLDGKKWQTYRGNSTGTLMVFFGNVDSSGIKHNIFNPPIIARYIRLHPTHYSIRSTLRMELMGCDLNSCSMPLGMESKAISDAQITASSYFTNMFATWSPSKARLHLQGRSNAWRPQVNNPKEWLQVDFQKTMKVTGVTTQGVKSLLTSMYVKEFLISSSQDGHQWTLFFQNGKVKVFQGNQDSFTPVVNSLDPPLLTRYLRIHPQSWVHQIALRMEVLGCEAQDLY

Substance	X-activation rate, PL-minus system (14 nM VIIIa, 400 nM X)	X-activation rate, PL-plus system (70 pM VIIIa, 0.5 nM IXa, 15 nM X)	rate of factor X activation with phospholipid, factor VIIIa increased from 70 pM to 14 nM
IXaD332Y	NM	NM	IXaD332Y ~4.1 nM/min
IXaL330I	0.94 nM/min	0.95 nM/min	–
IXaL337I	NM	NM	IXaL337I ~3.2 nM/min
IXaPCEGF1	2.71 nM/min	NM	–
IXaQ50P	2.81 nM/min	NM	–
IXaR333L	NM	NM	IXaP333L ~2.7 nM/min
IXaR333Q	NM	NM	IXaR333Q ~2.4 nM/min
IXaR338Q	2.22 nM/min	2.53 nM/min	–
IXaT335A	1.83 nM/min	1.92 nM/min	–
